According to patent US11795460B2, “Compositions and methods for TTR gene editing and treating ATTR amyloidosis” (Intellia Therapeutics, Inc., priority 2017, dated 2023):
Strand notation (5' to 3'): a small letter for the sugar, then the base; units joined by * are phosphorothioate-linked, units joined directly phosphodiester-linked; [ ] holds rarer units or linkages, { } end groups; capitals alone tell only the bases. m = 2'-O-methyl; r = 2'-OH (RNA)

Experiments:
TTR [1] = experiment: TTR editing in primary cyno hepatocytes electroporated with Spy Cas9 protein and sgRNAs (Tables 14, 15); format: cell-based, cynomolgus monkey; conditions: Table 15; primary cyno hepatocytes electroporated with Spy Cas9 protein (RNP) and cyno specific sgRNAs
Experimental: (§1) Primary liver hepatocytes. Primary human liver hepatocytes (PHH) and primary cynomolgus liver hepatocytes (PCH) (Gibco) were cultured per the manufacturer's protocol (Invitrogen, protocol 11.28.2012). In brief, the cells were thawed and resuspended in hepatocyte thawing medium with supplements (Gibco, Cat. CM7000) followed by centrifugation at 100 g for 10 minutes for human and 80 g for 4 minutes for cyno. The supernatant was discarded and the pelleted cells resuspended in hepatocyte plating medium plus supplement pack (Invitrogen, Cat. A1217601 and CM3000). Cells were counted and plated on Bio-coat collagen I coated 96-well plates (ThermoFisher, Cat. 877272) at a density of 33,000 cells/well for human or 60,000 cells/well for cyno (or 65,000 cells/well when assaying effects on TTR protein, described further below). Plated cells were allowed to settle and adhere for 6 or 24 hours in a tissue culture incubator at 37° C. and 5% CO2 atmosphere. After incubation cells were checked for monolayer formation and media was replaced with hepatocyte culture medium with serum-free supplement pack (Invitrogen, Cat. A1217601 and CM4000).
[…] formation was performed prior to electroporation or transfection of Spy Cas9 protein loaded with guide RNAs (RNPs) onto cells. For dual guide (dgRNAs), individual crRNA and trRNA was pre-annealed by mixing equivalent amounts of reagent and incubating at 95° C. for 2 min and cooling to room temperature. Single guide (sgRNAs) were boiled at 95° C. for 2 min and cooling to room temperature. The boiled dgRNA or sgRNA was incubated with Spy Cas9 protein in Optimem for 10 minutes at room temperature to form a ribonucleoprotein (RNP) complex.
For RNP electroporation into primary human and cyno hepatocytes, the cells are thawed and resuspended in Lonza electroporation Primary Cell P3 buffer at a concentration of 2500 cells per μL for human hepatocytes and 3500 cells per μL for cyno hepatocytes. A volume of 20 μL of resuspended cells and 5 μL of RNP are mixed together per guide. 20 μL of the mixture is placed into a Lonza electroporation plate. The cells were electroporated using the Lonza nucleofector with the preset protocol EX-147. Post electroporation, the cells are transferred into a Biocoat plate containing pre-warmed maintenance media and placed in a tissue culture incubator at 37° C. and 5% CO2.
Transfected cells were harvested post-transfection at 24, 48, or 72 hours. The genomic DNA was extracted from each well of a 96-well plate using 50 μL/well BuccalAmp DNA Extraction solution (Epicentre, Cat. QE09050) per manufacturer's protocol. All DNA samples were subjected to PCR and subsequent NGS analyses, as described herein.
(§2) To quantitatively determine the efficiency of editing at the target location in the genome, sequencing was utilized to identify the presence of insertions and deletions introduced by gene editing.
(§3) Primers were designed around the target site within the gene of interest (e.g. TTR), and the genomic area of interest was amplified.
(§4) Additional PCR was performed per the manufacturer's protocols (Illumina) to add chemistry for sequencing. The amplicons were sequenced on an Illumina MiSeq instrument. The reads were aligned to a reference genome (e.g., the human reference genome (hg38), the cynomologus reference genome (mf5), the rat reference genome (rn6), or the mouse reference genome (mm10)) after eliminating those having low quality scores. The resulting files containing the reads were mapped to the reference genome (BAM files), where reads that overlapped the target region of interest were selected and the number of wild type reads versus the number of reads which contain an insertion, substitution, or deletion was calculated.
The editing percentage (e.g., the “editing efficiency” or “percent editing” or “indel frequency”) is defined as the total number of sequence reads with insertions/deletions (“indels”) or substitutions over the total number of sequence reads, including wild type. […]

TTR [2] = experiment: TTR editing in primary cyno hepatocytes treated with LNP formulated Spy Cas9 mRNA (SEQ ID NO: 2) and sgRNAs (Tables 17, 18); format: cell-based, cynomolgus monkey; conditions: LNP formulated Spy Cas9 mRNA (SEQ ID NO: 2) and cyno matched sgRNAs, 72 hours post treatment
Experimental: as §1
In general, the lipid nanoparticle components were dissolved in 100% ethanol with the lipid component of various molar ratios. The RNA cargos were dissolved in 25 mM citrate, 100 mM NaCl, pH 5.0, resulting in a concentration of RNA cargo of approximately 0.45 mg/mL. The LNPs were formulated with a lipid amine to RNA phosphate (N:P) molar ratio of about 4.5 or about 6, with the ratio of mRNA to gRNA at 1:1 by weight.
The LNPs were formed by microfluidic mixing of the lipid and RNA solutions using a Precision Nanosystems NanoAssemblr™ Benchtop Instrument, according to the manufacturer's protocol. A 2:1 ratio of aqueous to organic solvent was maintained during mixing using differential flow rates. After mixing, the LNPs were collected, diluted in water (approximately 1:1 v/v), held for 1 hour at room temperature, and further diluted with water (approximately 1:1 v/v) before final buffer exchange. The final buffer exchange into 50 mM Tris, 45 mM NaCl, 5% (w/v) sucrose, pH 7.5 (TSS) was completed with PD-10 desalting columns (GE). If required, formulations were concentrated by centrifugation with Amicon 100 kDa centrifugal filters (Millipore). The resulting mixture was then filtered using a 0.2 μm sterile filter. The final LNP was stored at −80° C. until further use.
as §2, §3, §4
The editing percentage (e.g., the “editing efficiency” or “percent editing” or “indel frequency”) is defined as the total number of sequence reads with insertions/deletions (“indels”) or substitutions over the total number of sequence reads, including wild type.
Lipid nanoparticle formulations of modified sgRNAs targeting human TTR and the cyno matched sgRNA sequences were tested on primary human hepatocytes and primary cyno hepatocytes in a dose response curve. Primary human and cyno hepatocytes were plated as described in Example 1. […]

B1: G000508: TTR Cyno specific sgRNA modified sequence, SEQ ID No. 120; guide sequence of CR005368 (nucleic acid)
guide: mC*mC*mU*rCrCrUrCrUrGrCrCrUrCrGrCrUrGrGrArCrGrUrUrUrUrArGrAmGmCmUmAmGmAmAmAmUmAmGmCrArArGrUrUrArArArArUrArArGrGrCrUrArGrUrCrCrGrUrUrArUrCrAmAmCmUmUmGmAmAmAmAmAmGmUmGmGmCmAmCmCmGmAmGmUmCmGmGmUmGmCmU*mU*mU*mU
- Avg % Deletion (TTR [1]): 4.17%
- Avg % Edit (TTR [1]): 45.63%
- Avg % Insert (TTR [1]): 41.57%

B2: G000509: TTR Cyno specific sgRNA modified sequence, SEQ ID No. 121; guide sequence of CR005369 (nucleic acid)
guide: mA*mA*mA*rGrUrUrCrUrArGrArUrGrCrCrGrUrCrCrGrGrUrUrUrUrArGrAmGmCmUmAmGmAmAmAmUmAmGmCrArArGrUrUrArArArArUrArArGrGrCrUrArGrUrCrCrGrUrUrArUrCrAmAmCmUmUmGmAmAmAmAmAmGmUmGmGmCmAmCmCmGmAmGmUmCmGmGmUmGmCmU*mU*mU*mU
- 12.5 ng mRNA, 3.9 nM sgRNA % Edit (TTR [2]): 74.47%
- Avg % Deletion (TTR [1]): 49.73%
- Avg % Edit (TTR [1]): 93.03%
- Avg % Insert (TTR [1]): 43.60%

B3: G000510: TTR Cyno specific sgRNA modified sequence, SEQ ID No. 122; guide sequence of CR005370 (nucleic acid)
guide: mA*mC*mU*rUrGrUrCrUrUrCrUrCrUrArUrArCrCrCrArGrUrUrUrUrArGrAmGmCmUmAmGmAmAmAmUmAmGmCrArArGrUrUrArArArArUrArArGrGrCrUrArGrUrCrCrGrUrUrArUrCrAmAmCmUmUmGmAmAmAmAmAmGmUmGmGmCmAmCmCmGmAmGmUmCmGmGmUmGmCmU*mU*mU*mU
- 12.5 ng mRNA, 3.9 nM sgRNA % Edit (TTR [2]): 61.87%
- Avg % Deletion (TTR [1]): 1.77%
- Avg % Edit (TTR [1]): 90.80%
- Avg % Insert (TTR [1]): 89.13%

B4: G000511: TTR Cyno specific sgRNA modified sequence, SEQ ID No. 123; guide sequence of CR005371 (nucleic acid)
guide: mA*mA*mG*rUrGrArCrUrUrCrCrArGrUrArArGrArUrUrGrUrUrUrUrArGrAmGmCmUmAmGmAmAmAmUmAmGmCrArArGrUrUrArArArArUrArArGrGrCrUrArGrUrCrCrGrUrUrArUrCrAmAmCmUmUmGmAmAmAmAmAmGmUmGmGmCmAmCmCmGmAmGmUmCmGmGmUmGmCmU*mU*mU*mU
- Avg % Deletion (TTR [1]): 2.00%
- Avg % Edit (TTR [1]): 62.77%
- Avg % Insert (TTR [1]): 60.87%
